Results reported in US20220211858A1, “TUBULAR SUPRAMOLECULAR POLYMERS” (priority 2019, published 2022).
Entries after “also recorded” stand apart in the source; their conditions may differ.

What was measured:
[1] = TEM / cryo-TEM imaging of self-assembled nanostructures (dimensions); assay type: physicochemical
Protocol: About 200 μM stock solutions of corresponding TTs in water were prepared by dissolution of the lyophilized powders. After aging overnight, TEM samples were prepared by depositing 7 μL of the appropriate solution onto a carbon-coated copper grid (Electron Microscopy Services, Hatfield, Pa., USA), wicking away the excess solution with a small piece of filter paper. Next, 7 μL of a 2 wt % uranyl acetate aqueous solution was deposited on the surface for 30 seconds, wicking away the excess solution with filter paper. The grids were then air-dried overnight at room temperature prior to imaging. Bright-field TEM imaging was performed using an FEI Tecnai 12 TWIN Transmission Electron Microscope operated at an acceleration voltage of 100 kV. All TEM images were acquired by a SIS Megaview III wide-angle CCD camera or 16 bit 2K×2K FEI Eagle bottom mount camera.
Cryo-TEM imaging was performed using higher sample concentrations of 800 μM (compared with 200 μM for conventional TEM imaging). Extended imaging times can result in damage to the vitreous ice film caused by the electron beam and so higher concentrations can allow a more rapid visualization that reduces this likelihood. About 6 μL of the appropriate solution was dropped onto a lacey carbon-film-supported TEM copper grid (Electron Microscopy Services, Hatfield, Pa., USA). All the TEM grids used for cryo-TEM imaging were pretreated with plasma air to render the lacey carbon film hydrophilic. A thin film of the sample solution was produced using a Vitrobot with a controlled humidity chamber (FEI). After loading of the sample solution, the lacey carbon grid was blotted using preset parameters and plunged instantly into a liquid ethane reservoir precooled by liquid nitrogen. The vitrified samples were then transferred to a cryo-holder and cryo-transfer stage that was cooled by liquid nitrogen. To prevent sublimation of vitreous water, the cryo-holder temperature was maintained below −170° C. during the imaging process. All images were recorded by a Tecnai 12 microscope with a cryo-holder, and the images were acquired by a 16 bit 2K×2K FEI Eagle bottom mount camera.
Self-Assembly of SAPDs from TT1. To study the self-assembly behavior of the SAPDs, we directly dissolved the lyophilized powders in deionized water at a concentration of 2 mM and neutral pH.

[2] = Physical stability of TT 1 nanotubes upon dilution in cell medium (CD); assay type: physicochemical
Protocol: The stability of non-ionic TT 1 nanotubes upon dilution in cell medium was evaluated by recording the CD spectrum for a series of prepared dilutions. […] A stock solution of TT 1 nanotube was prepared at a concentration of 1 mM in water and aged overnight. The aged solution was then diluted to 200 μM with cell medium. Further dilutions of the 200 μM TT 1 nanotube in cell medium were prepared at 100 μM, 50 μM, 25 μM, 10 μM, and 5 μM concentration. All diluted solutions were incubated for an additional two days before CD measurements were made. All the CD spectra were recorded from 300 to 440 nm using a 1 mm (for 200 μM, 100 μM, and 50 μM) or 10 mm (for 25 μM, 10 μM, and 5 μM) path length quartz cell. The spectra were collected and normalized from ellipticity (mdeg) to molar ellipticity (deg·cm^2·dmol^−1).

[3] = Biodistribution study in U87 MG tumor-bearing mice; assay type: in vivo, nude mice
Protocol: Mice bearing subcutaneous tumors were established by injecting 100 μL of a U87 MG suspension in serum-free medium (2×10^6 cells) into the right flank of the mice. When the tumor reached a size of −200 mm^3, the mice were randomly grouped and received one of the following 3 treatments via intravenous injection (n=18 for each group): free CPT (4.5 mg/kg), TT 1 (4.5 mg/kg), and TT 1 (15 mg/kg). Three mice from each group were euthanized at pre-determined time points (1, 2, 4, 8, 12, and 24 h). Plasma, major organs, and tumors were collected and stored at −80° C. for further analysis. To determine the amount of free CPT and TT 1 in the samples, 100 mg tumors were mixed with 900 μL acetonitrile (containing 0.1% TFA) and then homogenized using Precellys Evolution Super Homogenizer (Bertin Technologies, France) for 3×40 s (5,600 shakes/min). The resulting suspensions were centrifuged and the supernatants were collected. For plasma, 50 μL of sample was mixed with 450 μL acetonitrile (containing 0.1% TFA) and sonicated for 1 min. The supernatants were collected using centrifugation. All samples were filtered through a 0.22 μm membrane before analysis by a UPLC system (Waters ACQuity™ Ultra Performance LC) equipped with a reverse-phase column (ACQuity UPLC@BEH, C18, 1.7 μm 2.1×150 mm) and a fluorescence detector (ACQuity FLR, Ex/Em=362/430 nm). The column was flushed with a mixture of water (0.1% TFA) and acetonitrile (0.1% TFA) at 0.3 mL/min with the following gradient: 5% acetonitrile (0-1 min), 5-95% acetonitrile (1-5 min), 95% acetonitrile (5-8 min), 95-5% acetonitrile (8-9 min), and 5% acetonitrile (9-10 min). Peaks with retention times of 5.4 min (free CPT) and 6.9 min (TT 1) were monitored.

[4] = test system: U87 MG human brain cancer cells; settings: 48 h incubation, SRB, CPT concentration
Protocol: The human brain cancer cell line U87 MG was a generous gift from Dr. Wirtz (ChemBE, JHU). DMEM (Invitrogen) containing 10% fetal bovine serum (FBS, Invitrogen) and 1% antibiotics (Invitrogen) was used for the culture of the U87 MG cells. Cancer cells were incubated at 37° C. in a humidified incubator (Oasis, Caron, Marietta, Ohio, USA) with an atmosphere of 5% CO2. […] U87 MG cells were seeded onto 96-well plates (5000 cells/well) and allowed to attach overnight. […] The stock solutions were then diluted with fresh medium to achieve final CPT concentrations of 0.1, 1, 10, 100, 500, 1000, 5000 and 10000 nM. After dilution, the nanotube-containing media were used to incubate cells immediately. Medium containing the same concentration of free CPT ranging from 0.1 to 10000 nM was also used to incubate the cells, with non-treated cells (solvent only) as the control group. In addition, irinotecan at the concentration of 0.1, 1, 5, 10, 50, 100 and 500 μM was employed as a second control. After 48 h incubation, the cell viability was evaluated using the SRB method according to the manufacturer's protocols (TOX-6, Sigma, St. Louis, Mo.).

## CC[C@]1(OC(=O)OCCSSC[C@@H](NC(C)=O)C(=O)N[C@@H](CCCCNC(=O)[C@@H](CSSCCOC(=O)O[C@]2(CC)C(=O)OCc3c2cc2n(c3=O)Cc3cc4ccccc4nc3-2)NC(C)=O)C(=O)N[C@@H](CCCCNC(=O)CCOCCOCCOCCOCCOC)C(=O)N[C@@H](CCCCNC(=O)CCOCCOCCOCCOCCOC)C(N)=O)C(=O)OCc2c1cc1n(c2=O)Cc2cc3ccccc3nc2-1 [TT 1]
[1]; TT 1 nanotubes, TEM
  wall thickness measured from toroids: 3.0±0.5 nm
[1]; TT 1 nanotubes, toroids, TEM
  hollow interior diameter: 2.5±0.6 nm
[1]; loaded with Coumarin 6, TEM
  nanotube diameter after loading: 9.8±1.4 nm
[1]; loaded with IR 780, TEM
  nanotube diameter after loading: 10.2±0.9 nm
[1]; loaded with Nile Red, TEM
  nanotube diameter after loading: 9.6±1.2 nm
[1]; loaded with Rose Bengal lactone, TEM
  nanotube diameter after loading: 10.7±1.4 nm
[1]; paclitaxel-doped, 200 μM, TEM
  diameter of PTX-doped nanotubes: 10.6±0.9 nm
[1]; self-assembled nanotubes in water, 200 μM, n>40
  Diameters measured by conventional TEM: 8.8 ± 0.8 nm
[2]; after one week
  appearance of solution in cell medium: remained clear after one week; also recorded: remains clear after a week
[2]; cell medium with 10% FBS, 10 and 5 μM
  change of CD signal upon dilution: slight decreases in intensity; also recorded: slight decrease of CD signal at 389 nm
[2]; cell medium with 10% FBS, concentrations above 25 μM, two days
  dissociation of nanotubes upon dilution (CD): no obvious disassociation; also recorded: minimum dissociation or aggregation
[3]; 4.5 mg/kg i.v., 1 hour
  increase of plasma concentration versus free CPT: approximately 129 fold
  increase of tumor concentration versus free CPT: 8 fold
[3]; 4.5 mg/kg, 1 hour after injection
  TT 1 converted to free CPT in the tumor: 47%
[3]; 4.5 mg/kg, 8 hours
  TT 1 converted to free CPT in the tumor: 82%
[3]; 15 mg/kg, 1 hour after injection
  TT 1 converted to free CPT in the tumor: 58%
[3]; 15 mg/kg, 8 hours
  TT 1 converted to free CPT in the tumor: 96%
[3]; i.v.
  retention in the blood: up to 12 hours
[4]
  IC50: 149 nM
